Laboratory results taken from paper PMC12115182, “Inhibition of RPA32 and Cytotoxic Effects of the Carnivorous Plant Sarracenia purpurea Root Extract in Non-Small-Cell Lung Cancer Cells”.

Molecular target: huRPA32 (human RPA32) (human, UniProt P15927 1-270)
Assay: EMSA; [Protein]50 by linear interpolation; DNA 30 fmol/uL; no extract; 40 mM Tris-HCl pH 7.5, 50 mM NaCl, 37 C, 60 min; 8% native PAGE in TBE, 100 V 1 h
Settings: protein: recombinant; single-stranded

Chain of huRPA32 (human RPA32) (P15927 whole entry): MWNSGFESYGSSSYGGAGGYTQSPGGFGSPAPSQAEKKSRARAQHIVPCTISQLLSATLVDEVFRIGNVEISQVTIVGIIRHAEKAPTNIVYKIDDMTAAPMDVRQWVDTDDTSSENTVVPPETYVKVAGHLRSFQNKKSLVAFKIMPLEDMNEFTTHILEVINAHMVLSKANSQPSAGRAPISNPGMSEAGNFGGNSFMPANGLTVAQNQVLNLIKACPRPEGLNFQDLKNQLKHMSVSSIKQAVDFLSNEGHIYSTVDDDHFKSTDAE

TTTTTTTTTTTTTTTTTTTTTTTTT (ssDNA) [dT25]
apparent K (half saturation): 5.7 ± 0.6 µM
